Test results: patent US20020086331

Molecular target: T1, Nit domain of C. elegans NitFhit, O76463
T1 chain: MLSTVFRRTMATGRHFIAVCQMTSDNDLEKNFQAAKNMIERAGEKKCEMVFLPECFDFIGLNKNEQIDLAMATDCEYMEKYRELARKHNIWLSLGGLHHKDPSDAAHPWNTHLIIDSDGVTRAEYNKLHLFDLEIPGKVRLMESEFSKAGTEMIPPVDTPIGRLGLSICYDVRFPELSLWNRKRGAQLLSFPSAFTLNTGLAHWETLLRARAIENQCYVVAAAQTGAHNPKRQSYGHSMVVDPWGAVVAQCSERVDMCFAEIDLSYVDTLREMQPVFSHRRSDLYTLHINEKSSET

B1: Fhit domain of C. elegans NitFhit (protein)
chain: GGLKFARFNIPADHIFYSTPHSFVFVNLKPVTDGHVLVSPKRVVPRLTDLTDAETADLFIVAKKVQAMLEKHHNVTSTTICVQDGKDAGQTVPHVHIHILPRRAGDFGDNEIYQKLASHDKEPERKPRSNEQMAEEAVVYRNLM
**Q.** Which “activity of worm NitFhit on ApppBODIPY relative to human Fhit (kcat/Km)” value does the source give for B1 here?
**A.** Its value is “worm NitFhit displays only 22% of the activity of human Fhit on ApppBODIPY”.

**Q.** And the “activity of worm NitFhit on GpppBODIPY relative to human Fhit (kcat/Km)” value?
**A.** Its value is “it displays 109% of the activity of human Fhit on GpppBODIPY”.
